Consider 14 molecules from US20240409645A1 (DUALYX, published 2024).

Positions count from the first letter of the chain named.

The chains are these.
B1: FJ1427_P035MP04F10 (VHH)
VHH: QLQLVESGGGWVQVGESLRLSCVPSGRTFVSGIMGWFRQAPGKEREFVARIISNNNSTRYTDSVKGRFTISRDSAKNTMYLQMNTLRPEDTAVYYCAARDRYGSGNSLSPSAYDYWGQGTQVTVSS
notes: VHH in periplasmic extract; also called clone nr
B2: FJ1427_P035MP04H09 (VHH)
VHH: B1 VHH with Q1E, L2V, V23A, S53L
notes: VHH in periplasmic extract; also called clone nr; 360
B3: FJ1427_P035MP04H11 (VHH)
VHH: B1 VHH with L2V, L18P, V23A, A40T, S53L
notes: as for B1
B4: FJ1427_P035MP04H10 (VHH)
VHH: B1 VHH with L2V, W11L, V14A, E16G, V23A, S53L, T61I, N84D, T85S
notes: as for B1
B5: FJ1427_P035MP04G03 (VHH)
VHH: B1 VHH with Q1E, L2V, V23A, S53L, N84D, T85S
notes: as for B1
B6: FJ1427_P035MP04G11 (VHH)
VHH: B1 VHH with L2V, V23A, K43E, S53L
notes: as for B1
B7: FJ1427_P035MP04F11 (VHH)
VHH: B1 VHH with L2V, V23A, A40T, S53L, M79L
notes: as for B1
B8: FJ1427_P035MP04G08 (VHH)
VHH: B1 VHH with L2V, V23A, S53L, N84D, T85S
notes: as for B1
B9: FJ1427_P035MP04G10 (VHH)
VHH: B1 VHH with L2V, V23A, S53L, N55S, V64A, N84D, T85S
notes: VHH in periplasmic extract; also called clone nr; 367
B10: 33-MP04C09 (VHH)
VHH: QLQLVESGGGLVQAGGSLRLSCAASGPTFSRVAVGWFRQAPGKEREFVAAVNRPATMTKYADSVKGRFTVSRDNAKNTVDLQMNSMKPEDTAVYYCAADSVPYGRPYYWQTSAGDYDYWGQGTQVTVSS
notes: VHH in periplasmic extract; also called FJ1427_P035MP04C09; clone nr
B11: FJ1427_P035MP04F02 (VHH)
VHH: QLQLVESGGGLVQAGGSLTLSCAASGRTFSRDVVGWFRQAPGKEREFVASISRSGDGTFYTDSVKGRFTISSRDNAKNTVLLQMNSLKVEDTAVYYCAAGDGWSTYDYWGQGTQVTVSS
notes: as for B1
B12: FJ1427_P035MP04D11 (VHH)
VHH: EVQLVESGGGLVQAGGSLRLSCAASGRTFGAVAVGWFRQVPGKEREFVAAINRSGSATKYADSVKGRFTISRDNAESPVFLQMNSLKPEDTAVYYCAADSLPYGRPYYFQTSAGEYDYWGQGTQVTVSS
notes: as for B1
B13: FJ1427_P035MP04A09 (VHH)
VHH: B12 VHH with E1Q, S54N, V64A, F80Y, V93I
notes: as for B1
B14: 32-MP04A08 (VHH)
VHH: QVQLVESGGGLVQAGGSLRLSCAASGRTFGSTAVGWFRQVPGKEREFVSAINRSGSATTYADSVKGRFTISRDNAKNTVYLQMNSLTPEDTGVYYCAADSLPYGRPYYFQRSAGEYDYWGQGTQVTVSS
notes: VHH in periplasmic extract; also called FJ1427_P035MP04A08; clone nr

One test addresses T1, human IL-2Rγ (common cytokine receptor γ-chain) (human, UniProt P31785 23-262, limits assumed).
T1 construct: Recombinant protein coated on the plate or immobilised on a CM5 chip; also called hu IL-2R; CD132
T1 sequence: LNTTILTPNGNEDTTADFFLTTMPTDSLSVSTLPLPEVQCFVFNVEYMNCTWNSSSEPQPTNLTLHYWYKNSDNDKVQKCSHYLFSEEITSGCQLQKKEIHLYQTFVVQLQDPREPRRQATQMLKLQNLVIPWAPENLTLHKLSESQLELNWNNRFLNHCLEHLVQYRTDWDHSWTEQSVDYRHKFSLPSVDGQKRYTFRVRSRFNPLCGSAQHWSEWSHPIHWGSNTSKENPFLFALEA
As to the kind of experiment: PE binding ELISA, periplasmic extract on coated protein. The procedure:
In a binding ELISA, human or mouse IL-2Rα, IL-2Rβ and IL-2Rγ proteins were coated directly on maxisorp microtiter plates overnight at 4° C. Free binding sites were blocked using 4% Marvel in PBS for 1 hour. Next, 1:5 dilution of P.E. in 1% Marvel/PBS were added to wells and incubated for 1 hour. […] Binding specificity was determined based on O.D. at 450 nm values compared to negative controls.
As for B1, the “OD (PE binding ELISA)” value was found to be 0.751 OD450 nm.
B2: the “OD (PE binding ELISA)” value came out at 1.87 OD450 nm.
As to B3, the “OD (PE binding ELISA)” value came to 1.77 OD450 nm.
Still for that read-out and setting: under B4 stands 1.8 OD450 nm.
On to B5, for which the “OD (PE binding ELISA)” value amounted to 0.933 OD450 nm.
Still for that read-out and setting: as for B6, the figure is 1.4 OD450 nm.
Take B7: the “OD (PE binding ELISA)” value stood at 2.01 OD450 nm.
The same measure, in the same setting: as for B8, the figure is 1.84 OD450 nm; as for B9, 0.839 OD450 nm.
For the molecule B10, the “OD (PE binding ELISA)” value is 1.69 OD450 nm.
As for B11, the “OD (PE binding ELISA)” value is 0.196 OD450 nm.
For B12, the “OD (PE binding ELISA)” value turned out to be 1.41 OD450 nm.
Same read-out and setting: as for B13, the figure is 1.23 OD450 nm; as for B14, 0.407 OD450 nm.

Another test concerns the target T1, human IL-2Rγ (common cytokine receptor …). As to the kind of experiment: SPR off-rate ranking, periplasmic extract on immobilised protein. The procedure:
SPR was performed to determine dissociation rates using Biacore 3000 instrument (GE Healthcare). Briefly, human and mouse IL-2R proteins were immobilized on carboxylmethyl dextran sensor chip (CM5) at approximately 2500 RUs using amine coupling in acetate buffer (GE Healthcare). The VHH-containing P.E. were loaded with a flow rate of 30 uL/min and the off-rates were measured over a 120s period.
Consider B1, for which the koff (usually a measure of how fast the partners let go of each other) worked out at 0.0147 s⁻¹.
B2: the koff came out at 0.0222 s⁻¹.
For the molecule B3, the koff worked out at 0.0103 s⁻¹.
The same measure, in the same setting: as for B4, the figure is 0.00998 s⁻¹; as for B5, 0.00744 s⁻¹.
On the same count and under the same terms, under B6 stands 0.0116 s⁻¹; under B7, 0.0111 s⁻¹.
Still for that read-out and setting: under B8 stands 0.00892 s⁻¹; under B9, 0.0104 s⁻¹; under B10, 0.031 s⁻¹.
In turn, B11 registered a koff of 0.0026 s⁻¹.
On the same count and under the same terms, under B12 stands 0.0401 s⁻¹; under B13, 0.0576 s⁻¹; under B14, 0.0616 s⁻¹.
